Experimental data published in publication PMC10509167, “Identification and characterization of endo-α-, exo-α-, and exo-β-D-arabinofuranosidases degrading lipoarabinomannan and arabinogalactan of mycobacteria” (Nature Communications, 2023).
Blank lines part the entries; values can stand above or below the substance they belong to.

Key:
[1] = target: EndoMA1 (MIAR_33230), GH183 (DUF4185) endo-D-arabinanase from Microbacterium arabinogalactanolyticum, recombinant wild type (Microbacterium arabinogalactanolyticum JCM 9171); assay: SEC-SAXS; SEC-SAXS of EndoMA1 at beamline BL-10C of the Photon Factory, same column and buffer as SEC-MALS/RI; profile compared with the dimeric apo crystal structure
[2] = target: EndoMA1 (MIAR_33230), GH183 (DUF4185) endo-D-arabinanase from Microbacterium arabinogalactanolyticum, recombinant wild type (Microbacterium arabinogalactanolyticum JCM 9171); assay: crystal structure; EndoMA1 wild type, apo form, 1.60 Å; sitting-drop vapor diffusion, 20 °C
[3] = target: EndoMA1 (MIAR_33230), GH183 (DUF4185) endo-D-arabinanase from Microbacterium arabinogalactanolyticum, recombinant wild type (Microbacterium arabinogalactanolyticum JCM 9171); assay: SEC-MALS; SEC-MALS/RI of EndoMA1, KW403-4F column (Shodex), DAWN HELEOS II; self-association in solution
[4] = target: EndoMA1 D51N catalytic residue mutant (Microbacterium arabinogalactanolyticum JCM 9171); assay: crystal structure; EndoMA1 D51N co-crystallised with 10 mM A9LT, 1.80 Å; microseeding, 30 °C; four chains (A-D) in the asymmetric unit
[5] = target: ExoMA1 (MIAR_33200), GH172 exo-α-D-arabinofuranosidase from Microbacterium arabinogalactanolyticum, recombinant (Microbacterium arabinogalactanolyticum JCM 9171); assay: crystal structure; ExoMA1 apo form, 2.42 Å; dodecamer in the asymmetric unit; sitting-drop vapor diffusion, 20 °C
[6] = target: ExoMA1 (MIAR_33200), GH172 exo-α-D-arabinofuranosidase from Microbacterium arabinogalactanolyticum, recombinant (Microbacterium arabinogalactanolyticum JCM 9171); assay: negative-stain transmission electron microscopy; purified ExoMA1 0.1 mg/mL in 10 mM Tris-HCl (pH 7.5), 500 mM NaCl, on carbon-coated copper grids, 2% uranyl acetate, 120 kV
[7] = target: ExoMA1 (MIAR_33200), GH172 exo-α-D-arabinofuranosidase from Microbacterium arabinogalactanolyticum, recombinant (Microbacterium arabinogalactanolyticum JCM 9171); assay: SEC; SEC of ExoMA1 in solution (Supplementary Fig. 19a)

- stoichiometry N [1]: 2
- stoichiometry N [2]: 2
- stoichiometry N [3]: 2
Substance: EndoMA1 (MIAR_33230), GH183 (DUF4185) endo-D-arabinanase from Microbacterium arabinogalactanolyticum, recombinant wild type (enzyme)

- stoichiometry N [4]: 2
Substance: EndoMA1 D51N catalytic residue mutant (enzyme)

- stoichiometry N [5]: 12
- stoichiometry N [6]: 12
- stoichiometry N [7]: > 7
Substance: ExoMA1 (MIAR_33200), GH172 exo-α-D-arabinofuranosidase from Microbacterium arabinogalactanolyticum, recombinant (enzyme)
